B1: Azoarcus group I ribozyme (parent)
chain: GUGCCUUGCGCCGGGAAACCACGCAAGGGAUGGUGUCAAAUUCGGCGAAACCUAAGCGCCCGCCCGGGCGUAUGGCAACGCCGAGCCAAGCUUCGGCGCCUGCGCCGAUGAAGGUGUAGAGACUAGACGGCACCCACCUAAGGCAAACGCUAUGGUGAAGGCAUAGUCCAGGGAGUGGCGAAAGUCACACAAACCGG

Variants of: B1
Assay: reverse-splicing fitness (ratio to wild type); higher = more active; in vitro selection; Mg2+ level not given
In short: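 An in vitro group I ribozyme library with randomized positions was T7-transcribed and gel-purified. In triplicate, 10 pmol RNA in EPPS pH 7.5 was reacted with 50 pmoles of a 30-nt RNA substrate for 1 h at 37 °C across several added MgCl2 levels (1–48 mM), then stopped with EDTA. Products were reverse transcribed from a substrate-complementary primer, PCR-amplified and sequenced (HiSeq 4000). Fitness is a variant's read proportion after selection over that before, normalised to wild type.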

Variant | reverse-splicing fitness
C82A A111G A145G C150U C169U U176G | 0.00655
C82A A111G A145G C150U C169U U176A | 0.0138
C82A A111G A145G C150U C169U U176C | 0.0135
C82A A111G A145U C150G C169U U176C | 0.0117
C82A A111G A145U C150G C169U U176G | 0.00668
C82A A111G A145U C150G C169U U176A | 0.00709
C82A A111G A145G C169G | 0.00988
C82A A111G A145G C169U | 0.0126
C82A A111G A145G C169A | 0.0102
C82A A111U A120C A145C C150A C169G U176A | 0.0385
C82A A111U A120C A145C C150A C169G U176G | 0.0101
C82A A111U A120C A145C C150A C169G U176C | 0.0348
C82A A111G A145U C150A C169A U176C | 0.0106
C82A A111G A145U C150A C169A U176A | 0.0124
C82A A111G A145U C150A C169A U176G | 0.00674
C82A A111G A145C C150U C169U U176G | 0.0052
C82A A111G A145C C150U C169U U176C | 0.00981
C82A A111G A145C C150U C169U U176A | 0.0126
C82A A111G A145C C169A | 0.0076
C82A A111G A145C C169G | 0.00994
C82A A111G A145C C169U | 0.0119

Variant | reverse-splicing fitness
C82A A111G A145G C150G U176A | 0.00955
C82A A111G A145G C150G U176C | 0.0188
C82A A111G A145G C150G U176G | 0.00721
C82A A111G A145U C150U C169G U176C | 0.015
C82A A111G A145U C150U C169G U176G | 0.00627
C82A A111G A145U C150U C169G U176A | 0.0131
C82A A111G A145G C150U U176G | 0.0317
C82A A111G A145G C150U U176A | 0.115
C82A A111G A145G C150U U176C | 0.174
C82A A111U A120C A145C C150G C169A U176C | 0.011
C82A A111U A120C A145C C150G C169A U176A | 0.00999
C82A A111U A120C A145C C150G C169A U176G | 0.0073
C82A A111G C150A U176C | 0.0387
C82A A111G C150A U176G | 0.0144
C82A A111G C150A U176A | 0.0284
C82A A111G A120U C150G U176G | 0.0031
C82A A111G A120U C150G U176A | 0.00446
C82A A111G A120U C150G U176C | 0.00582
C82A A111G A120U C169A | 0.00261
C82A A111G A120U C169U | 0.00452
C82A A111G A120U C169G | 0.00374

Variant | reverse-splicing fitness
C82A A111G A145G C150U C169G U176A | 0.0156
C82A A111G A145G C150U C169G U176G | 0.00644
C82A A111G A145G C150U C169G U176C | 0.0198
C82A A111G A145U C169U | 0.0125
C82A A111G A145U C169G | 0.00852
C82A A111G A145U C169A | 0.00788
C82A A111G A145C C169A U176A | 0.0123
C82A A111G A145C C169A U176C | 0.00756
C82A A111G A145C C169A U176G | 0.00582
C82A A111U A120C | 0.0268
C82A A111G A145G C150A C169A | 0.0118
C82A A111G A145G C150A C169G | 0.00998
C82A A111G A145G C150A C169U | 0.0109
C82A A111U | 0.299
C82A A111U A120C A145C C150A C169U U176C | 0.0124
C82A A111U A120C A145C C150A C169U U176G | 0.00621
C82A A111U A120C A145C C150A C169U U176A | 0.0157
C82A A111G C150G C169G | 0.00678
C82A A111G C150G C169A | 0.0102
C82A A111G C150G C169U | 0.0107
C82A A111G A120U C169G U176G | 0.00181

Variant | reverse-splicing fitness
C82A A111G A120U C169G U176A | 0.00294
C82A A111G A120U C169G U176C | 0.00341
C82A A111G C150G C169G U176G | 0.00592
C82A A111G C150G C169G U176A | 0.00836
C82A A111G C150G C169G U176C | 0.00543
C82A A111G C150U U176G | 0.0264
C82A A111G C150U U176A | 0.0842
C82A A111G C150U U176C | 0.127
C82A A111G A145G C150U C169A | 0.0115
C82A A111G A145G C150U C169U | 0.0135
C82A A111G A145G C150U C169G | 0.0102
C82A A111G A145C C150A C169A U176A | 0.0122
C82A A111G A145C C150A C169A U176C | 0.00723
C82A A111G A145C C150A C169A U176G | 0.00644
C82A A111G A145G C150G C169U | 0.00932
C82A A111G A145G C150G C169G | 0.00786
C82A A111G A145G C150G C169A | 0.0093
C82A A111G U176A | 0.189
C82A A111G U176C | 0.262
C82A A111G U176G | 0.0537

Source: the RNAGym collection of RNA variant scans (doi:10.1093/molbev/msab373)
